According to PMC12644734:

Target: T1, SARS-CoV M protein (SARS-CoV), P59596
T1 chain: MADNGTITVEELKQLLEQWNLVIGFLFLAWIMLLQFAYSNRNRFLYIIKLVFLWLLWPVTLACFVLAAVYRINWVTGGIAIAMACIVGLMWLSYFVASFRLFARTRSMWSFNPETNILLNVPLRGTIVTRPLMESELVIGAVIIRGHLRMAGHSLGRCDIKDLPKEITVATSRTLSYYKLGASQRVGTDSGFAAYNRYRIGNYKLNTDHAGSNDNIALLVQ
Assay: cryo-EM structure
Details: remark: other sources report otherwise

B1: SARS-CoV M protein, P59596 1-221 (natural protein)
chain: T1 chain
stoichiometry N: 2
